# Source: US20230212319A1, “NOVEL ANTIGEN BINDING DOMAINS AND SYNTHETIC ANTIGEN RECEPTORS INCORPORATING THE SAME” (University of Southern California, priority 2020, published 2023)
# B1: 22239 (protein)
# chain: MALPVTALLLPLALLLHAARPACPYINIYNAEPANPSEKNSPTQYAYGTGGGGSGGGGSGGGGSEFDIQMTQSPSSLSASVGDRVTITCKASDHINNWLAWYQQKPGQAPKLLIYGATTLETGVPSRFSGSGSGTDYTLTISSLQPEDFATYYCQQSWNTPWTFGQGTKLEIKRLEDLKNVFPPEVAVFEPSEAEISHTQKATLVCLATGFYPDHVELSWWVNGKEVHSGVCTDPQPLKEQPALNDSRYCLSSRLRVSATFWQNPRNHFRCQVQFYGLSENDEWTQDRAKPVTQIVSAEAWGRADCGFTSESYQQGVLSATILYEILLGKATLYAVLVSALVLMAMVKRKDSRGRAKRSGSGATNFSLLKQAGDVEENPGPTSATMDWIWRILFLVGAATGAHSGPQLGPYELWELSHGSGGGGSGGGGSGGGGSFEQVQLQQPGAELVKPGASVKMSCKASGYAFSSYWINWMKQKPGQGLEWIGQIYPGDGDTNYNGKFKGRATLTADTSSSTAYMQLSSLTSEDSAVYFCARSITTVVGCAMDYWGQGTSVTVSSTRIQNPDPAVYQLRDSKSSDKSVCLFTDFDSQTNVSQSKDSDVYITDKCVLDMRSMDFKSNSAVAWSNKSDFACANAFNNSIIPEDTFFPSPESSCDVKLVEKSFETDTNLNFQNLSVIGFRILLLKVAGFNLLMTLRLWSSRAKRSGSGVKQTLNFDLLKLAGDVESNPGPSRGHMTEYKPTVRLATRDDVPRAVRTLAAAFADYPATRHTVDPDRHIERVTELQELFLTRVGLDIGKVWVADDGAAVAVWTTPESVEAGAVFAEIGPRMAELSGSRLAAQQQMEGLLAPHRPKEPAWFLATVGVSPDHQGKGLGSAVVLPGVEAAERAGVPAFLETSAPRNLPFYERLGFTVTADVEVPEGPRTWCMTRKPGA
# B2: 22238 (protein)
# chain: MALPVTALLLPLALLLHAARPDIQMTQSPSSLSASVGDRVTITCKASDHINNWLAWYQQKPGQAPKLLIYGATTLETGVPSRFSGSGSGTDYTLTISSLQPEDFATYYCQQSWNTPWTFGQGTKLEIKRLEDLKNVFPPEVAVFEPSEAEISHTQKATLVCLATGFYPDHVELSWWVNGKEVHSGVCTDPQPLKEQPALNDSRYCLSSRLRVSATFWQNPRNHFRCQVQFYGLSENDEWTQDRAKPVTQIVSAEAWGRADCGFTSESYQQGVLSATILYEILLGKATLYAVLVSALVLMAMVKRKDSRGRAKRSGSGATNFSLLKQAGDVEENPGPTSATMDWIWRILFLVGAATGAHSQLGPYELWELSHGSGSGSGSQLGPYELWELSHSGGGSGQLGPYELWELSHGSSGPEVQLVESGGGLVQAGGSLRLSCAASGRTFSMGWFRQAPGKEREFVAAITYSGGSPYYADSVKGRFTISRDNAKNTVYLQMNSLKPEDTAVYYCAANPTYGSDWNAENWGQGTQVTVSSGSGGGGSGGGGSGGGGSFEQVQLQQPGAELVKPGASVKMSCKASGYAFSSYWINWMKQKPGQGLEWIGQIYPGDGDTNYNGKFKGRATLTADTSSSTAYMQLSSLTSEDSAVYFCARSITTVVGCAMDYWGQGTSVTVSSTRIQNPDPAVYQLRDSKSSDKSVCLFTDFDSQTNVSQSKDSDVYITDKCVLDMRSMDFKSNSAVAWSNKSDFACANAFNNSIIPEDTFFPSPESSCDVKLVEKSFETDTNLNFQNLSVIGFRILLLKVAGFNLLMTLRLWSSRAKRSGSGVKQTLNFDLLKLAGDVESNPGPSRGHMTEYKPTVRLATRDDVPRAVRTLAAAFADYPATRHTVDPDRHIERVTELQELFLTRVGLDIGKVWVADDGAAVAVWTTPESVEAGAVFAEIGPRMAELSGSRLAAQQQMEGLLAPHRPKEPAWFLATVGVSPDHQGKGLGSAVVLPGVEAAERAGVPAFLETSAPRNLPFYERLGFTVTADVEVPEGPRTWCMTRKPGA
# B3: 22236 (protein)
# chain: MALPVTALLLPLALLLHAARPDIQMTQSPSSLSASVGDRVTITCKASDHINNWLAWYQQKPGQAPKLLIYGATTLETGVPSRFSGSGSGTDYTLTISSLQPEDFATYYCQQSWNTPWTFGQGTKLEIKRLEDLKNVFPPEVAVFEPSEAEISHTQKATLVCLATGFYPDHVELSWWVNGKEVHSGVCTDPQPLKEQPALNDSRYCLSSRLRVSATFWQNPRNHFRCQVQFYGLSENDEWTQDRAKPVTQIVSAEAWGRADCGFTSESYQQGVLSATILYEILLGKATLYAVLVSALVLMAMVKRKDSRGRAKRSGSGATNFSLLKQAGDVEENPGPTSATMDWIWRILFLVGAATGAHSIYPPLLRTSQAMGSGGPGSGSCQFDLSTRRLKCGSGSCQFDLSTRRLKCGSGGGGSGGGGSGGGGSFEQVQLQQPGAELVKPGASVKMSCKASGYAFSSYWINWMKQKPGQGLEWIGQIYPGDGDTNYNGKFKGRATLTADTSSSTAYMQLSSLTSEDSAVYFCARSITTVVGCAMDYWGQGTSVTVSSTRIQNPDPAVYQLRDSKSSDKSVCLFTDFDSQTNVSQSKDSDVYITDKCVLDMRSMDFKSNSAVAWSNKSDFACANAFNNSIIPEDTFFPSPESSCDVKLVEKSFETDTNLNFQNLSVIGFRILLLKVAGFNLLMTLRLWSSRAKRSGSGVKQTLNFDLLKLAGDVESNPGPSRGHMTEYKPTVRLATRDDVPRAVRTLAAAFADYPATRHTVDPDRHIERVTELQELFLTRVGLDIGKVWVADDGAAVAVWTTPESVEAGAVFAEIGPRMAELSGSRLAAQQQMEGLLAPHRPKEPAWFLATVGVSPDHQGKGLGSAVVLPGVEAAERAGVPAFLETSAPRNLPFYERLGFTVTADVEVPEGPRTWCMTRKPGA
# B4: 22241 (protein)
# chain: MALPVTALLLPLALLLHAARPDIQMTQSPSSLSASVGDRVTITCKASDHINNWLAWYQQKPGQAPKLLIYGATTLETGVPSRFSGSGSGTDYTLTISSLQPEDFATYYCQQSWNTPWTFGQGTKLEIKRLEDLKNVFPPEVAVFEPSEAEISHTQKATLVCLATGFYPDHVELSWWVNGKEVHSGVCTDPQPLKEQPALNDSRYCLSSRLRVSATFWQNPRNHFRCQVQFYGLSENDEWTQDRAKPVTQIVSAEAWGRADCGFTSESYQQGVLSATILYEILLGKATLYAVLVSALVLMAMVKRKDSRGRAKRSGSGATNFSLLKQAGDVEENPGPTSATMDWIWRILFLVGAATGAHSYINIYNAEPANPSEKNSPSTQYAYGSGSSYINIYNAEPANPSEKNSPSTQYAYGSGGSYINIYNAEPANPSEKNSPSTQYAYGSGSSSYINIYNAEPANPSEKNSPSTQYAYGSGSGSYINIYNAEPANPSEKNSPSTQYAYGPSGSGGGGSGGGGSGGGGSFEQVQLQQPGAELVKPGASVKMSCKASGYAFSSYWINWMKQKPGQGLEWIGQIYPGDGDTNYNGKFKGRATLTADTSSSTAYMQLSSLTSEDSAVYFCARSITTVVGCAMDYWGQGTSVTVSSTRIQNPDPAVYQLRDSKSSDKSVCLFTDFDSQTNVSQSKDSDVYITDKCVLDMRSMDFKSNSAVAWSNKSDFACANAFNNSIIPEDTFFPSPESSCDVKLVEKSFETDTNLNFQNLSVIGFRILLLKVAGFNLLMTLRLWSSRAKRSGSGVKQTLNFDLLKLAGDVESNPGPSRGHMTEYKPTVRLATRDDVPRAVRTLAAAFADYPATRHTVDPDRHIERVTELQELFLTRVGLDIGKVWVADDGAAVAVWTTPESVEAGAVFAEIGPRMAELSGSRLAAQQQMEGLLAPHRPKEPAWFLATVGVSPDHQGKGLGSAVVLPGVEAAERAGVPAFLETSAPRNLPFYERLGFTVTADVEVPEGPRTWCMTRKPGA
# B5: 22237 (protein)
# chain: MALPVTALLLPLALLLHAARPDIQMTQSPSSLSASVGDRVTITCKASDHINNWLAWYQQKPGQAPKLLIYGATTLETGVPSRFSGSGSGTDYTLTISSLQPEDFATYYCQQSWNTPWTFGQGTKLEIKRLEDLKNVFPPEVAVFEPSEAEISHTQKATLVCLATGFYPDHVELSWWVNGKEVHSGVCTDPQPLKEQPALNDSRYCLSSRLRVSATFWQNPRNHFRCQVQFYGLSENDEWTQDRAKPVTQIVSAEAWGRADCGFTSESYQQGVLSATILYEILLGKATLYAVLVSALVLMAMVKRKDSRGRAKRSGSGATNFSLLKQAGDVEENPGPTSATMDWIWRILFLVGAATGAHSGCPKWDAARCSGGGSGPGSGSCQFDLSTRRLKCGSGSCQFDLSTRRLKCGSGGGGSGGGGSGGGGSFEQVQLQQPGAELVKPGASVKMSCKASGYAFSSYWINWMKQKPGQGLEWIGQIYPGDGDTNYNGKFKGRATLTADTSSSTAYMQLSSLTSEDSAVYFCARSITTVVGCAMDYWGQGTSVTVSSTRIQNPDPAVYQLRDSKSSDKSVCLFTDFDSQTNVSQSKDSDVYITDKCVLDMRSMDFKSNSAVAWSNKSDFACANAFNNSIIPEDTFFPSPESSCDVKLVEKSFETDTNLNFQNLSVIGFRILLLKVAGFNLLMTLRLWSSRAKRSGSGVKQTLNFDLLKLAGDVESNPGPSRGHMTEYKPTVRLATRDDVPRAVRTLAAAFADYPATRHTVDPDRHIERVTELQELFLTRVGLDIGKVWVADDGAAVAVWTTPESVEAGAVFAEIGPRMAELSGSRLAAQQQMEGLLAPHRPKEPAWFLATVGVSPDHQGKGLGSAVVLPGVEAAERAGVPAFLETSAPRNLPFYERLGFTVTADVEVPEGPRTWCMTRKPGA
# B6: 22240 (protein)
# chain: MALPVTALLLPLALLLHAARPDIQMTQSPSSLSASVGDRVTITCKASDHINNWLAWYQQKPGQAPKLLIYGATTLETGVPSRFSGSGSGTDYTLTISSLQPEDFATYYCQQSWNTPWTFGQGTKLEIKRLEDLKNVFPPEVAVFEPSEAEISHTQKATLVCLATGFYPDHVELSWWVNGKEVHSGVCTDPQPLKEQPALNDSRYCLSSRLRVSATFWQNPRNHFRCQVQFYGLSENDEWTQDRAKPVTQIVSAEAWGRADCGFTSESYQQGVLSATILYEILLGKATLYAVLVSALVLMAMVKRKDSRGRAKRSGSGATNFSLLKQAGDVEENPGPTSATMDWIWRILFLVGAATGAHSGPYINIYNAEPANPSEKNSPSTQYAYGGGSQLGPYELWELSHGSGGSGGGGSGGGGSGGGGSFEQVQLQQPGAELVKPGASVKMSCKASGYAFSSYWINWMKQKPGQGLEWIGQIYPGDGDTNYNGKFKGRATLTADTSSSTAYMQLSSLTSEDSAVYFCARSITTVVGCAMDYWGQGTSVTVSSTRIQNPDPAVYQLRDSKSSDKSVCLFTDFDSQTNVSQSKDSDVYITDKCVLDMRSMDFKSNSAVAWSNKSDFACANAFNNSIIPEDTFFPSPESSCDVKLVEKSFETDTNLNFQNLSVIGFRILLLKVAGFNLLMTLRLWSSRAKRSGSGVKQTLNFDLLKLAGDVESNPGPSRGHMTEYKPTVRLATRDDVPRAVRTLAAAFADYPATRHTVDPDRHIERVTELQELFLTRVGLDIGKVWVADDGAAVAVWTTPESVEAGAVFAEIGPRMAELSGSRLAAQQQMEGLLAPHRPKEPAWFLATVGVSPDHQGKGLGSAVVLPGVEAAERAGVPAFLETSAPRNLPFYERLGFTVTADVEVPEGPRTWCMTRKPGA
# System: RAJI cells
# Assay: JNG assay, co-culture with RAJI cells
# Type: cell-based
# Details: JNG cells expressing construct, co-culture with Raji
# Procedure, shortened: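 Jurkat NFAT-GFP (JNG) cells stably transduced with SARs by lentivirus, with drug selection where the construct carried a resistance gene, then co-cultured with target cells at E:T ~1:2 for ~4–18 h. % GFP-positive cells measured by FACS against parental JNG; +/- to 5+ correspond to ~5–50% GFP-positive.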
row,Molecule,NFAT-GFP ASSAY: Raji
1,B1,"Raji (+) (refer to approximately 5%, 10%, 20%, 30%, 40% and 50% GFP positive cells)"
2,B2,"Raji (+) (refer to approximately 5%, 10%, 20%, 30%, 40% and 50% GFP positive cells)"
3,B3,"Raji (4+) (refer to approximately 5%, 10%, 20%, 30%, 40% and 50% GFP positive cells)"
4,B4,"Raji (4+) (refer to approximately 5%, 10%, 20%, 30%, 40% and 50% GFP positive cells)"
5,B5,"Raji (5+) (refer to approximately 5%, 10%, 20%, 30%, 40% and 50% GFP positive cells)"
6,B6,"Raji (3+) (refer to approximately 5%, 10%, 20%, 30%, 40% and 50% GFP positive cells)"
